The record followed here is article PMC10988713.

The term Km denotes the concentration of substrate that gives half-maximal velocity. A word on the kcat: it is the number of substrate molecules converted per active site and unit of time at saturation.

Substrate in data set [1]: C[C@H](O)CC(=O)SCCNC(=O)CCNC(=O)[C@H](O)C(C)(C)COP(=O)(O)OP(=O)(O)OC[C@H]1O[C@@H](n2cnc3c(N)ncnc32)[C@H](O)[C@@H]1OP(=O)(O)O
Nature of the data set: purified protein. It is filed as biochemical, Homo sapiens. As to conditions: 1 mM NAD+, pH 9.0, 50 mM Tris, 50 mM KCl, 25 °C.

Substrate in data set [2]: C[C@H](O)CC(=O)SCCNC(=O)CCNC(=O)[C@H](O)C(C)(C)COP(=O)(O)OP(=O)(O)OC[C@H]1O[C@@H](n2cnc3c(N)ncnc32)[C@H](O)[C@@H]1OP(=O)(O)O
Nature of the data set: purified protein. It is filed as biochemical, Rattus norvegicus. As to conditions: 1 mM NAD+, pH 9.0, 50 mM Tris, 50 mM KCl, 25 °C, HAD dehydrogenase reaction.

Changes are numbered by the printed parent chain. Numbers in names are those of the source.

B1: HsHAD (Homo sapiens) (protein)
chain: SSSSTASASAKKIIVKHVTVIGGGLMGAGIAQVAAATGHTVVLVDQTEDILAKSKKGIEESLRKVAKKKFAENLKAGDEFVEKTLSTIATSTDAASVVHSTDLVVEAIVENLKVKNELFKRLDKFAAEHTIFASNTSSLQITSIANATTRQDRFAGLHFFNPVPVMKLVEVIKTPMTSQKTFESLVDFSKALGKHPVSCKDTPGFIVNRLLVPYLMEAIRLYERGDASKEDIDTAMKLGAGYPMGPFELLDYVGLDTTKFIVDGWHEMDAENPLHQPSPSLNKLVAENKFGKKTGEGFYKYK
notes: N-terminal His6 tag in pET28a, E. coli BL21(DE3) pLysS, dimer of 35 kDa subunits
As for B1, in the data set “purified protein [1]”, the Km amounted to 19 ± 0.9 µM and the turnover number (kcat) came out at 42 ± 2 s⁻¹.

B2: BCDE (Rattus norvegicus) (protein)
chain: ASGQAKALQYAFFAEKSANKWSTPSGASWKTASAQPVSSVGVLGLGTMGRGIAISFARVGISVVAVESDPKQLDAAKKIITFTLEKEASRAHQNGQASAKPKLRFSSSTKELSTVDLVVEAVFEDMNLKKKVFAELSALCKPGAFLCTNTSALNVDDIASSTDRPQLVIGTHFFSPAHVMRLLEVIPSRYSSPTTIATVMSLSKKIGKIGVVVGNCYGFVGNRMLAPYYNQGFFLLEEGSKPEDVDGVLEEFGFKMGPFRVSDLAGLDVGWKIRKGQGLTGPSLPPGTPVRKRGNSRYSPLGDMLCEAGRFGQKTGKGWYQYDKPLGRIHKPDPWLSTFLSQYREVHHIEQRTISKEEILERCLYSLINEAFRILEEGMAARPEHIDVIYLHGYGWPRHKGGPMFYAASVGLPTVLEKLQKYYRQNPDIPQLEPSDYLRRLVAQGSPPLKEWQSLAGPHGSKL
notes: truncated RnMFE1 from Ala260 (ASGQ) to the C-terminus, without domain A (ECH part); N-terminal His6 tag, E. coli BL21(DE3) pLysS
With B2, in “purified protein [2]”, the Km was 5.2 ± 0.9 µM and the kcat worked out at 1.6 ± 0.1 s⁻¹.

B3: RnMFE1 (Rattus norvegicus) (protein)
chain: MAEYLRLPHSLAMIRLCNPPVNAVSPTVIREVRNGLQKAGSDHTVKAIVICGANGNFCAGADIHGFSAFTPGLALGSLVDEIQRYQKPVLAAIQGVALGGGLELALGCHYRIANAKARVGLPEVTLGILPGARGTQLLPRVVGVPVALDLITSGKYLSADEALRLGILDAVVKSDPVEEAIKFAQKIIDKPIEPRRIFNKPVPSLPNMDSVFAEAIAKVRKQYPGVLAPETCVRSIQASVKHPYEVGIKEEEKLFMYLRASGQAKALQYAFFAEKSANKWSTPSGASWKTASAQPVSSVGVLGLGTMGRGIAISFARVGISVVAVESDPKQLDAAKKIITFTLEKEASRAHQNGQASAKPKLRFSSSTKELSTVDLVVEAVFEDMNLKKKVFAELSALCKPGAFLCTNTSALNVDDIASSTDRPQLVIGTHFFSPAHVMRLLEVIPSRYSSPTTIATVMSLSKKIGKIGVVVGNCYGFVGNRMLAPYYNQGFFLLEEGSKPEDVDGVLEEFGFKMGPFRVSDLAGLDVGWKIRKGQGLTGPSLPPGTPVRKRGNSRYSPLGDMLCEAGRFGQKTGKGWYQYDKPLGRIHKPDPWLSTFLSQYREVHHIEQRTISKEEILERCLYSLINEAFRILEEGMAARPEHIDVIYLHGYGWPRHKGGPMFYAASVGLPTVLEKLQKYYRQNPDIPQLEPSDYLRRLVAQGSPPLKEWQSLAGPHGSKL
As for B3, in “purified protein [2]”, the Km turned out to be 11 ± 2 µM and the kcat was 1.9 ± 0.3 s⁻¹.

B4: RnMFE1 (Rattus norvegicus; E123A) (protein)
chain: B3 chain with E123A
As for B4, in the data set “purified protein [2]”, the Michaelis-Menten constant (Km) was 10 ± 0.6 µM and the turnover number (kcat) is 2.4 ± 0.1 s⁻¹.
